Reference: article PMC3034952 (Enzyme Research, 2011)
Residue numbers refer to the chain shown, from its start.

Assays:
[1] = biological target: T1, Arabidopsis thaliana mitochondrial pyruvate dehydrogenase E1α subunit (AtPDC E1α), wild type, H6-tagged (Arabidopsis thaliana, UniProt P52901 18-389); assay: pull-down; H6-E1α and FLAG-E1β coexpressed in E. coli; soluble fraction on a HiTrap chelating column charged with NiSO4 (immobilized metal affinity chromatography); E1α detected with monoclonal anti-E1α, E1β with anti-FLAG by immunoblot; conditions: partners not purified
T1 sequence (looked up): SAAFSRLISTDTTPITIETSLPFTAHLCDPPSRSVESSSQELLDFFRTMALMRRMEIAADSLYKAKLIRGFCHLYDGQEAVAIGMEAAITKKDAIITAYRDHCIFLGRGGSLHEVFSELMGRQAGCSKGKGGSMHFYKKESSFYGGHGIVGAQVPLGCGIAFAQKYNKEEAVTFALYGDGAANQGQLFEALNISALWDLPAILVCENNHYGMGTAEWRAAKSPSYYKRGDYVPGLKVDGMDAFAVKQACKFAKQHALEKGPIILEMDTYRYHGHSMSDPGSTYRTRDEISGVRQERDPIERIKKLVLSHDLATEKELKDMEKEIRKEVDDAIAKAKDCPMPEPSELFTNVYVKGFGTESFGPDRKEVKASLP

[2] = biological target: T2, AtPDC E1α G297D mutant, H6-tagged (Arabidopsis thaliana, UniProt P52901 18-389, G297D); assay: SEC; purified recombinant AtPDC E1 on a Superose 12 column in 50 mM TES-NaOH, pH 7.4, 50 mM NaCl, 0.1 mM TPP, 0.2 mM MgCl2; fractions analysed by SDS-PAGE and immunoblotting; conditions: both partners purified
T2 sequence (looked up): T1 sequence (looked up) with G280D

[3] = biological target: T3, AtPDC E1α S292D mutant, H6-tagged (Arabidopsis thaliana, UniProt P52901 18-389, S292D); assay: as above; conditions: both partners purified
T3 sequence (looked up): T1 sequence (looked up) with S275D

[4] = biological target: T4, AtPDC E1α S292D/S298A double mutant, H6-tagged (Arabidopsis thaliana, UniProt P52901 18-389, S292D | S298A); assay: as above; conditions: both partners purified
T4 sequence (looked up): T1 sequence (looked up) with S275D, S281A

[5] = biological target: T5, AtPDC E1α G297S mutant, H6-tagged (Arabidopsis thaliana, UniProt P52901 18-389, G297S); assay: as above; conditions: both partners purified
T5 sequence (looked up): T1 sequence (looked up) with G280S

binding result [1]: binds
binding result [2]: binds
binding result [3]: binds
binding result [4]: binds
binding result [5]: binds
B1: Arabidopsis thaliana mitochondrial pyruvate dehydrogenase E1β subunit (AtPDC E1β), FLAG-tagged (enzyme, UniProt Q38799 30-363, looked up)
chain: AAGAKEMTVRDALNSAIDEEMSADPKVFVMGEEVGQYQGAYKITKGLLEKYGPERVYDTPITEAGFTGIGVGAAYAGLKPVVEFMTFNFSMQAIDHIINSAAKSNYMSAGQINVPIVFRGPNGAAAGVGAQHSQCYAAWYASVPGLKVLAPYSAEDARGLLKAAIRDPDPVVFLENELLYGESFPISEEALDSSFCLPIGKAKIEREGKDVTIVTFSKMVGFALKAAEKLAEEGISAEVINLRSIRPLDRATINASVRKTSRLVTVEEGFPQHGVCAEICASVVEESFSYLDAPVERIAGADVPMPYAANLERLALPQIEDIVRASKRACYRSK
